From paper PMC3157015 (Biochemical and biophysical research communications, 2011)
No end group written: not given here.

Tests used:
[1] = target: T1, Glutaminase Interacting Protein (GIP), recombinant (UniProt O14907 1-124); test: NMR titration
T1 sequence (looked up): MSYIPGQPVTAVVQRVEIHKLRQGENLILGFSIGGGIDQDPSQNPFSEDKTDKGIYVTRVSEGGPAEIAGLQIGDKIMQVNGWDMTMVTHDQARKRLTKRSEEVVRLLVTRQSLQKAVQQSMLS

[2] = target: T1, Glutaminase Interacting Protein (GIP), …; test: NMR titration; remark: listed apart in the source

**Q.** RDGDFQTEV-OH [BAI2 C-terminal peptide (RDGDFQTEV-COOH)] was tested. Which “KD from residue A66 of GIP” value [1] did it give?
**A.** 86.6 µM

**Q.** What about the “KD from residue D38 of GIP” value [1] of the same binder?
**A.** 92.5 µM

**Q.** What about the “KD from residue E17 of GIP” value [1] of the same binder?
**A.** 64.8 µM

**Q.** What about the “KD from residue E62 of GIP” value [1] of the same binder?
**A.** 102 µM

**Q.** And the “KD from residue E102 of GIP” value [1]?
**A.** 118 µM

**Q.** And the “KD from residue F46 of GIP” value [1]?
**A.** 138 µM

**Q.** What about the “KD from residue L71 of GIP” value [1] of the same binder?
**A.** 85.8 µM

**Q.** What about the “KD from residue N81 of GIP” value [1] of the same binder?
**A.** 84.3 µM

**Q.** And the “KD from residue T86 of GIP” value [1]?
**A.** 104 µM

**Q.** What about the Kd [2] of the same binder?
**A.** 97.8 µM
